# Values joined by “and” are separate entries in the source; they are usually repeats but may differ in a detail not shown here. Equal values may be shown once.
# T1: human cathepsin K (Homo sapiens, UniProt P43235)
# T1 construct: made in house
# T1 sequence (P43235 115-329): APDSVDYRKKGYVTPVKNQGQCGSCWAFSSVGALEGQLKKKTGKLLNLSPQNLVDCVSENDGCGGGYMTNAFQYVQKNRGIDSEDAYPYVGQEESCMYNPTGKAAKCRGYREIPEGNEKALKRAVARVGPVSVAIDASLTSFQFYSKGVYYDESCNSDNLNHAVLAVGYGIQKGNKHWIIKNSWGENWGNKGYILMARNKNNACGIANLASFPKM
# T2: caspase 9 (Homo sapiens, UniProt P55211)
# T2 construct: purchased Calbiochem or Athens Research and Technology
# T2 sequence (P55211 1-315 limits assumed): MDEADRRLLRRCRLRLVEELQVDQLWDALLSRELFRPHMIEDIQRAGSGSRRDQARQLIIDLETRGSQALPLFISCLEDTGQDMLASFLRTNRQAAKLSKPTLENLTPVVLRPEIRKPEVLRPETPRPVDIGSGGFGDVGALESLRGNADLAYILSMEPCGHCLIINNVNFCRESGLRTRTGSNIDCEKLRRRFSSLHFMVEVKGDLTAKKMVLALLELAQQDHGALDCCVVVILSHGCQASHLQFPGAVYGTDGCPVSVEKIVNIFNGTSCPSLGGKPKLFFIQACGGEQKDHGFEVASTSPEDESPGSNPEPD
# T2 sequence (P55211 331-416 limits assumed): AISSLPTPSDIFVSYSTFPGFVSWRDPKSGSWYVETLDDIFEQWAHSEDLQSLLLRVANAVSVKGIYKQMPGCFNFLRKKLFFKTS
# B1: Spi2A: murine Spi2A polypeptide, SEQ ID NO:2; purified as C-terminal 3×FLAG protein or expressed from MIGR1 retrovirus in cells and bone-marrow chimeras (protein, listed as Mus musculus)
# chain: MAGVSPAVFGCPDVTLGRNTAVREVQENVTSVDSLTLVSSNTDFAFSLYRKLVLKNPDENVVFSPFSICTALALLSLGAKSNTLKEILEGLKFNLTETPEPDIHQGFRYLLDLLSQPGNQVQISTGSALFIEKHLQILAEFKEKARALYQAEAFTADFQQPLKATKLINDYVSNHTQGKIKELISGLKESTLMVLVNYIYFKGKWKNPFDPNDTFKSEFYLDEKRSVIVSMMKTGYLTTPYFRDEELSCTVVELKYTGNASAMFILPDQGRMQQVEASLQPETLRKWKNSLKPRMIHELRLPKFSISTDYSLEHILPELGIREVFSTHADLSAITGTKDLRVSQVVHKAVLDVAEKGTEAAAATGMAGVGCCAVFDFLEIFFNRPFLMIISDTKAHIALFMAKVTNPERSTNFPNGEGASSQRLESKRLCFGDPLCLIGQ
# modifications: C-terminal 3xFLAG tag
# notes: purified as C-terminal 3×FLAG protein or expressed from MIGR1 retrovirus in cells and bone-marrow chimeras
# Key:
# human cathepsin K = target: T1, human cathepsin K; assay: Protease specificity of Spi2A: cathepsin K; type: biochemical; details: protease 20 nM, Spi2A 200 nM, 1 h at 37° C; FIG. 6B
# Method: (§1) Protease specificity of Spi2A. RelA^−/− MEFs were transduced with retrovirus encoding Spi2A with a C-terminal 3×FLAG epitope tag and Spi2A-3×FLAG purified using a method described previously (Cooley et al., 1998). Briefly, cells (3×10^9) were lysed and Spi2A-3×FLAG (75 μg) purified by batch Q-Fast Flow ion-exchange chromatography (Pharmacia Biotech) after elution at 160-220 mM NaCl followed by anti-FLAG antibody columns, performed according to manufacturer's instructions (Sigma-Aldrich). Spi2A-3×FLAG was dialysed into PBS and stored as aliquots at −80° C. until needed.
# (§2) Proteases were purchases from the manufacturers (Calbiochem or Athens Research and Technology) except granzymes A and B which were purified as described (Hanna et al., 1993) and cathespin V and K, which were purified as described (Bromme et al., 1999; Linnevers et al., 1997). Proteases (20 nM) were incubated in the appropriate assay buffer with Spi2A at 200 nM (at least 10-fold excess of inhibitor to maintain pseudo-first order conditions) for 1 h at 37° C. Control samples included only the enzyme, without the inhibitor. At the end of 1 h protease activity was assayed. […] Substrate hydrolysis was measured in a fluorescence microtiter plate reader (Spectramax Gemini XS, Molecular Devices). Percentage inhibition was calculated from the residual enzyme activity compared to no Spi2A controls. […]
# [1] = system: anti-LCMV memory CD8 cells; details: mouse, in vivo
# [2] = system: CD8 cells and B lymphocytes in PBLs; assay: Generation of bone marrow chimeras transduced with retrovirus: engraftment of CD8 cells and B lymphocytes in PBLs; type: in vivo, mouse; details: 8 weeks after bone-marrow transfer, before infection; vs GFP mice
# RelA^−/− MEFs [3] = assay: Lysosome internal pH (acridine orange, flow cytometry), RelA^−/− MEFs; type: cell-based, mouse; details: TNF-α 0.2 ng/ml, CHX 0.1 μg/ml; FIG. 8
# Method: FIG. 8. Spi2A offers partial protection of lysosomal de-acidification in […]. RelA^−/− MEFs were transduced by retrovirus encoding GFP alone or Spi2A as indicated by the percentage AO-low cells after treatment with TNF-α (0.2 ng/ml) and CHX (0.1 μg/ml). The percentage of intact lysosomes was determined by staining with AO as has been described previously (Zhao et al., 2000). Briefly, cells were incubated with AO (5 μg/ml), washed and collected for flow cytometric assessment of uptake into intact lysosomes as indicated by red fluorescence (FL3 channel).
# The inhibitory reaction was too fast to be measured using our conventional spectrophotometer. […] Lysosome internal pH was measured by staining with the weak basic, lysosomotropic dye—acridine orange (AO)— and flow cytometry (Zhao et al., 2000). Increase in lysosomal pH results a corresponding decrease in AO red fluorescence and the appearance of AO-low cells. It was shown that TNF-R1 cross-linking results in the appearance of AO-low cells in Rel A^−/− MEFs transduced with control retrovirus (GFP) (Supplementary FIG. 4). […] The appearance of AO-low cells can be interpreted as lysosomal rupture, and so it is possible that Spi2A in some way protects lysosomes from damage induced by TNF-α.
# RelA^−/− MEFs [4] = assay: Survival assay, sphingosine, RelA^−/− MEFs; type: cell-based, mouse; details: sphingosine 10-50 μM, 2 h; FIG. 7B
# Method: Survival Assays. Although RelA^−/− MEFs are markedly more sensitive to TNF-α compared to RelA^+/+ MEFs, low levels of CHX (0.1 μg/ml) were used in the survival assays. This was to suppress any protective activity of constitutively active non-RelA NF-κB molecules that are present in RelA^−/− MEFs (FIG. 4). Thus, RelA^−/− MEFs were treated with CHX and TNF-α (R&D) and the number of live GFP-positive adherent cells was counted by flow cytometry after 16 h, if not indicated otherwise. Live cells were defined as those that excluded propidium iodide (PI-negative) and had the appropriate size, as defined by forward and side scatter characteristics (Coligan et al., 1995). For RelA^+/+ MEFs, TNF-α-cytotoxicity was determined after 16 h with CHX (10 μg/ml), if not indicated otherwise. Cathepsin B activity was inhibited by a 1 h pre-treatment of MEFs with CA-074 Me (30 μM) (Peptide Institute). […] RelA^−/− MEFs were treated with (10-50 μM) sphingosine (Calbiochem) and the number of live GFP-positive adherent cells was counted by flow cytometry after 2 h.
# caspase 9 = target: T2, caspase 9; assay: Protease specificity of Spi2A: caspase 9; type: biochemical; details: FIG. 6B
# Method: as §1, §2
molecule,measurement,setting,value
B1,Inhibition of protease by Spi2A (percentage inhibition),human cathepsin K,"extended to all of the lysosomal, papain-like proteases that were examined"
same,Number of anti-LCMV CD8 cells per spleen GFP^−,[1],5.07 ± 0.68 (n = 3) ×10^−5 and 2.79 ± 0.12 (n = 6) ×10^−5
same,Percentage and absolute number of anti-LCMV memory CD8 cells (IFN-γ^+ CD8^+) in the spleen,[1],increased
same,Percentage of CD8 cells in transduced (GFP-positive) PBLs,[2],no difference
same,Appearance of AO-low cells (lysosomal de-acidification),RelA^−/− MEFs [3],less AO-low cells
same,Protection from death after treatment with sphingosine,RelA^−/− MEFs [4],could protect
same,Inhibition of protease by Spi2A (percentage inhibition),caspase 9,did not extend to any of the caspases tested
